Assay results published in patent publication US20050129678A1 (published 2005).

T1: GST-Yil033C (yeast, UniProt P07278 1-416)
T1 construct: also called Yil033C-Bcy1; Yil033C-Bcyl; not shown: glutathione S-transferase (GST) fusion tag
T1 sequence (looked up): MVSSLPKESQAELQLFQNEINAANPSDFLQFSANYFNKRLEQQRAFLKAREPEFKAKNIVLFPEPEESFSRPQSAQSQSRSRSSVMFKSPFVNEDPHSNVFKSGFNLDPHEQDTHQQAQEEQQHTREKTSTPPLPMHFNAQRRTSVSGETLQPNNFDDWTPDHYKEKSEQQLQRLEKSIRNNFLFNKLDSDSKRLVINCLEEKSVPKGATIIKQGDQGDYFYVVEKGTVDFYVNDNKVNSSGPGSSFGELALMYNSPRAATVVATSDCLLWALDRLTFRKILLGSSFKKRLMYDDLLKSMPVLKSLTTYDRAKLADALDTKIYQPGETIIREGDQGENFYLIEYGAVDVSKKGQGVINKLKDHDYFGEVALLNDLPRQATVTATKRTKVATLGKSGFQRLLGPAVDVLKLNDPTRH

B1: endogenous Tpk1 (enzyme, yeast, UniProt P06244 2-397, looked up)
chain: STEEQNGGGQKSLDDRQGEESQKGETSERETTATESGNESKSVEKEGGETQEKPKQPHVTYYNEEQYKQFIAQARVTSGKYSLQDFQILRTLGTGSFGRVHLIRSRHNGRYYAMKVLKKEIVVRLKQVEHTNDERLMLSIVTHPFIIRMWGTFQDAQQIFMIMDYIEGGELFSLLRKSQRFPNPVAKFYAAEVCLALEYLHSKDIIYRDLKPENILLDKNGHIKITDFGFAKYVPDVTYTLCGTPDYIAPEVVSTKPYNKSIDWWSFGILIYEMLAGYTPFYDSNTMKTYEKILNAELRFPPFFNEDVKDLLSRLITRDLSQRLGNLQNGTEDVKNHPWFKEVVWEKLLSRNIETPYEPPIQQGQGDTSQFDKYPEEDINYGVQGEDPYADLFRDF
notes: Untagged yeast Tpk1 found in a GST fusion preparation; also called Tpk1wt; a protein with the same molecular weight as Tpk1
B2: GST-Yjl164C-Tpk1 (enzyme, UniProt P06244 1-397, looked up)
chain: MSTEEQNGGGQKSLDDRQGEESQKGETSERETTATESGNESKSVEKEGGETQEKPKQPHVTYYNEEQYKQFIAQARVTSGKYSLQDFQILRTLGTGSFGRVHLIRSRHNGRYYAMKVLKKEIVVRLKQVEHTNDERLMLSIVTHPFIIRMWGTFQDAQQIFMIMDYIEGGELFSLLRKSQRFPNPVAKFYAAEVCLALEYLHSKDIIYRDLKPENILLDKNGHIKITDFGFAKYVPDVTYTLCGTPDYIAPEVVSTKPYNKSIDWWSFGILIYEMLAGYTPFYDSNTMKTYEKILNAELRFPPFFNEDVKDLLSRLITRDLSQRLGNLQNGTEDVKNHPWFKEVVWEKLLSRNIETPYEPPIQQGQGDTSQFDKYPEEDINYGVQGEDPYADLFRDF
notes: not shown: glutathione S-transferase (GST) fusion tag
B3: GST-Ykl166C (enzyme, UniProt P05986 1-398, looked up)
chain: MYVDPMNNNEIRKLSITAKTETTPDNVGQDIPVNAHSVHEECSSNTPVEINGRNSGKLKEEASAGICLVKKPMLQYRDTSGKYSLSDFQILRTLGTGSFGRVHLIRSNHNGRFYALKTLKKHTIVKLKQVEHTNDERRMLSIVSHPFIIRMWGTFQDSQQVFMVMDYIEGGELFSLLRKSQRFPNPVAKFYAAEVCLALEYLHSKDIIYRDLKPENILLDKNGHIKITDFGFAKYVPDVTYTLCGTPDYIAPEVVSTKPYNKSVDWWSFGVLIYEMLAGYTPFYNSNTMKTYENILNAELKFPPFFHPDAQDLLKKLITRDLSERLGNLQNGSEDVKNHPWFNEVIWEKLLARYIETPYEPPIQQGQGDTSQFDRYPEEEFNYGIQGEDPYMDLMKEF
notes: also called Ykl166C-Tpk3; Tpk3; not shown: glutathione S-transferase (GST) fusion tag
B4: GST-Ypl203W (enzyme, UniProt P06245 1-380, looked up)
chain: MEFVAERAQPVGQTIQQQNVNTYGQGVLQPHHDLQQRQQQQQQRQHQQLLTSQLPQKSLVSKGKYTLHDFQIMRTLGTGSFGRVHLVRSVHNGRYYAIKVLKKQQVVKMKQVEHTNDERRMLKLVEHPFLIRMWGTFQDARNIFMVMDYIEGGELFSLLRKSQRFPNPVAKFYAAEVILALEYLHAHNIIYRDLKPENILLDRNGHIKITDFGFAKEVQTVTWTLCGTPDYIAPEVITTKPYNKSVDWWSLGVLIYEMLAGYTPFYDTTPMKTYEKILQGKVVYPPYFHPDVVDLLSKLITADLTRRIGNLQSGSRDIKAHPWFSEVVWERLLAKDIETPYEPPITSGIGDTSLFDQYPEEQLDYGIQGDDPYAEYFQDF
notes: also called Ypl203W-Tpk2; Yp1203W; not shown: glutathione S-transferase (GST) fusion tag

Columns and labels:
GST-Ykl166C [1] = target: B3; assay: co-purification with the GST fusion, Western blot with anti-Tpk1
From the text: (§1) Tpk1 is a protein kinase involved in pseudohyphal growth and ras signal transduction (Robertson et al., 1998, Pro Natl Acad Sci USA 95, 13783-7; Tokiwa et al., 1994, Nature 371, 342-5). […] Three of these proteins, Ykl166C-Tpk3 (a protein kinase), Ypl203W-Tpk2 (a protein kinase) and Yil033C-Bcyl (a cAMP-dependent protein kinase inhibitor) have been shown by mass spectroscopy to be co-immunoprecipitated with Tpk1 (Ho et al., 2002, Nature 415, 180-3).
(§2) SDS-PAGE and Western analyses of Protein Samples. Purified proteins were mixed with sample buffer, heated and run in 5%/10% SDS-PAGE gels, transferred to nitrocellulose and blocked overnight with 1% BSA in TBST. Subsequently, blots were probed with primary antibodies for 2 hours, washed three times with TBST, probed with secondary antibodies conjugated to HRP for 1 hour and washed three times with TBST. Femto-reagent (Pierce Co., Milwaukee) was added and images acquired with an Alpha Innotech Imaging station.

GST-Ykl166C [2] = target: B3; assay: microarray-based protein interaction experiment
GST-Yil033C = target: T1, GST-Yil033C; assay: microarray-based protein-protein interaction
endogenous Tpk1 = target: B1; assay: co-purification with the GST fusion, Western blot with anti-Tpk1
From the text: as §1, §2

binding result (GST-Ykl166C [1])	binding result (GST-Ykl166C [2])	binding result (GST-Yil033C)	binding result (endogenous Tpk1)	Binder
no binding	–	–	–	B1
–	no binding	binds	–	B2
–	–	binds	–	B3
–	–	binds	no binding	B4
